{"source": "paper PMC6279937", "about": "“Biochemical Characterization of Aspergillus fumigatus AroH, a Putative Aromatic Amino Acid Aminotransferase” (Frontiers in Molecular Biosciences, 2018)", "key": {"AroH": {"target": "T1, AroH (Aspergillus fumigatus, UniProt Q4X0F7)", "T1 construct": "gene AFUA_2G13630; entire AroH cDNA with C-terminal 6xHis tag (kept) in pET22b, synthesized by GenScript, expressed in E. coli BL21(DE3); subunit mass 59480 Da; homodimer with 1 PLP per subunit", "T1 sequence (Q4X0F7 1-526)": "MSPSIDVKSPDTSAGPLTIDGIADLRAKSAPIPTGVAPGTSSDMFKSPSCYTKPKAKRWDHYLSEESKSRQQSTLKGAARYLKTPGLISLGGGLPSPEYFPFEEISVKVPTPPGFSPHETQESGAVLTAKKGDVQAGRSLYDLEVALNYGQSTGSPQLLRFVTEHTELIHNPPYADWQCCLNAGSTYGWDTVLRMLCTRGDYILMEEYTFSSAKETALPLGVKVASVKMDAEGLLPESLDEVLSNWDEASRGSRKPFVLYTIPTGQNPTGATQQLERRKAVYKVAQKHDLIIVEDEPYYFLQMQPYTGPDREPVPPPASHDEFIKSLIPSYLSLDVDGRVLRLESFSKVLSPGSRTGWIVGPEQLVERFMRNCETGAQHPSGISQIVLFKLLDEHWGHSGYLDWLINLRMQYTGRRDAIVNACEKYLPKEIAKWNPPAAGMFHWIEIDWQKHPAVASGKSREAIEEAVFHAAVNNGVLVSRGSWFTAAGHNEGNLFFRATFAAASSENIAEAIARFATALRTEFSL", "assay": "intrinsic fluorescence quenching of apoenzyme, tight-binding fit", "details": "read-out: KD(PLP)"}, "[1]": {"target": "Aspergillus fumigatus AroH, recombinant, with a C-terminal 6xHis tag (Aspergillus fumigatus)", "assay": "SEC; 5 uM holoAroH on Superdex 200 10/300 GL, 0.1 M potassium phosphate pH 7.4, 0.5 ml/min; elution volume compared with molecular weight standards"}, "purified protein [2]": {"substrate": "N[C@@H](CCC(=O)O)C(=O)O", "assay": "purified protein", "assay_type": "biochemical, Aspergillus fumigatus", "details": "co-substrate α-ketoadipate, 100 μM PLP, 66 mM potassium phosphate pH 7.4"}, "purified protein [3]": {"substrate": "N[C@@H](CCCC(=O)O)C(=O)O", "assay": "purified protein", "assay_type": "biochemical, Aspergillus fumigatus", "details": "co-substrate α-ketoglutarate, 100 μM PLP, 66 mM potassium phosphate pH 7.4"}, "purified protein [4]": {"substrate": "N[C@@H](Cc1c[nH]c2ccccc12)C(=O)O", "assay": "purified protein", "assay_type": "biochemical, Aspergillus fumigatus", "details": "co-substrate 1 mM α-ketoglutarate, 100 μM PLP, 66 mM potassium phosphate pH 8.2, 25°C, pH 8.2"}, "purified protein [5]": {"substrate": "N[C@@H](Cc1ccc(O)cc1)C(=O)O", "assay": "purified protein", "assay_type": "biochemical, Aspergillus fumigatus", "details": "co-substrate 1 mM α-ketoglutarate, 100 μM PLP, 66 mM potassium phosphate pH 8.2, 25°C, pH 8.2"}, "purified protein [6]": {"substrate": "N[C@@H](Cc1ccccc1)C(=O)O", "assay": "purified protein", "assay_type": "biochemical, Aspergillus fumigatus", "details": "co-substrate 1 mM α-ketoglutarate, 100 μM PLP, 66 mM potassium phosphate pH 8.2 (Figure 5 legend says pH 7.4), 25°C"}, "purified protein [7]": {"substrate": "Nc1ccccc1C(=O)C[C@H](N)C(=O)O", "assay": "purified protein", "assay_type": "biochemical, Aspergillus fumigatus", "details": "co-substrate α-ketoglutarate, 100 μM PLP, 66 mM potassium phosphate pH 7.4"}, "purified protein [8]": {"substrate": "O=C(O)CCC(=O)C(=O)O", "assay": "purified protein", "assay_type": "biochemical, Aspergillus fumigatus", "details": "co-substrate 20 mM L-tryptophan, 100 μM PLP, 66 mM potassium phosphate pH 8.2, 25°C, pH 8.2"}, "purified protein [9]": {"substrate": "O=C(O)CCCC(=O)C(=O)O", "assay": "purified protein", "assay_type": "biochemical, Aspergillus fumigatus", "details": "co-substrate L-glutamate, 100 μM PLP, 66 mM potassium phosphate pH 7.4"}}}
{"molecule": "Cc1ncc(COP(=O)(O)O)c(C=O)c1O", "note": "[PLP]", "values": [{"measurement": "Kd", "setting": "AroH", "result": "100 ± 20", "unit": "nM"}]}
{"molecule": "Aspergillus fumigatus AroH, recombinant, with a C-terminal 6xHis tag (enzyme)", "values": [{"measurement": "stoichiometry N", "setting": "[1]", "result": 2}]}
{"molecule": "AroH (Aspergillus fumigatus Af293) (protein, entire AroH cDNA with C-terminal 6xHis tag (kept) in pET22b, synthesized by GenScript, expressed in E. coli BL21(DE3); subunit mass 59480 Da; homodimer with 1 PLP per subunit) MSPSIDVKSPDTSAGPLTIDGIADLRAKSAPIPTGVAPGTSSDMFKSPSCYTKPKAKRWDHYLSEESKSRQQSTLKGAARYLKTPGLISLGGGLPSPEYFPFEEISVKVPTPPGFSPHETQESGAVLTAKKGDVQAGRSLYDLEVALNYGQSTGSPQLLRFVTEHTELIHNPPYADWQCCLNAGSTYGWDTVLRMLCTRGDYILMEEYTFSSAKETALPLGVKVASVKMDAEGLLPESLDEVLSNWDEASRGSRKPFVLYTIPTGQNPTGATQQLERRKAVYKVAQKHDLIIVEDEPYYFLQMQPYTGPDREPVPPPASHDEFIKSLIPSYLSLDVDGRVLRLESFSKVLSPGSRTGWIVGPEQLVERFMRNCETGAQHPSGISQIVLFKLLDEHWGHSGYLDWLINLRMQYTGRRDAIVNACEKYLPKEIAKWNPPAAGMFHWIEIDWQKHPAVASGKSREAIEEAVFHAAVNNGVLVSRGSWFTAAGHNEGNLFFRATFAAASSENIAEAIARFATALRTEFSL", "values": [{"measurement": "Km", "setting": "purified protein [2]", "result": "10000 ± 1000", "unit": "µM"}, {"measurement": "kcat", "setting": "purified protein [2]", "result": "10.3 ± 0.3", "unit": "s⁻¹"}, {"measurement": "kcat/Km", "setting": "purified protein [2]", "result": "960 ± 80", "unit": "M⁻¹ s⁻¹"}, {"measurement": "Km", "setting": "purified protein [3]", "result": "3300 ± 400", "unit": "µM"}, {"measurement": "kcat", "setting": "purified protein [3]", "result": "13.2 ± 0.5", "unit": "s⁻¹"}, {"measurement": "kcat/Km", "setting": "purified protein [3]", "result": "4000 ± 400", "unit": "M⁻¹ s⁻¹"}, {"measurement": "Km", "setting": "purified protein [4]", "result": "2100 ± 300", "unit": "µM"}, {"measurement": "kcat", "setting": "purified protein [4]", "result": "3 ± 0.1", "unit": "s⁻¹"}, {"measurement": "kcat/Km", "setting": "purified protein [4]", "result": "1400 ± 200", "unit": "M⁻¹ s⁻¹"}, {"measurement": "Km", "setting": "purified protein [5]", "result": "500 ± 100", "unit": "µM"}, {"measurement": "kcat", "setting": "purified protein [5]", "result": "4 ± 0.3", "unit": "s⁻¹"}, {"measurement": "kcat/Km", "setting": "purified protein [5]", "result": "8000 ± 2000", "unit": "M⁻¹ s⁻¹"}, {"measurement": "Km", "setting": "purified protein [6]", "result": "1400 ± 200", "unit": "µM"}, {"measurement": "kcat", "setting": "purified protein [6]", "result": "7.4 ± 0.2", "unit": "s⁻¹"}, {"measurement": "kcat/Km", "setting": "purified protein [6]", "result": "5200 ± 600", "unit": "M⁻¹ s⁻¹"}, {"measurement": "Km", "setting": "purified protein [7]", "result": "9000 ± 2000", "unit": "µM"}, {"measurement": "kcat", "setting": "purified protein [7]", "result": "4.1 ± 0.4", "unit": "s⁻¹"}, {"measurement": "kcat/Km", "setting": "purified protein [7]", "result": "400 ± 100", "unit": "M⁻¹ s⁻¹"}, {"measurement": "Km", "setting": "purified protein [8]", "result": "180 ± 20", "unit": "µM"}, {"measurement": "kcat", "setting": "purified protein [8]", "result": "2.5 ± 0.1", "unit": "s⁻¹"}, {"measurement": "kcat/Km", "setting": "purified protein [8]", "result": "14000 ± 2000", "unit": "M⁻¹ s⁻¹"}, {"measurement": "Km", "setting": "purified protein [9]", "result": "140 ± 30", "unit": "µM"}, {"measurement": "kcat", "setting": "purified protein [9]", "result": "12.5 ± 1", "unit": "s⁻¹"}, {"measurement": "kcat/Km", "setting": "purified protein [9]", "result": "90000 ± 20000", "unit": "M⁻¹ s⁻¹"}]}
